The target of data set [1] is T1, MjFsrI (F420-dependent sulphite reductase, Fsr) (Methanocaldococcus jannaschii, UniProt Q58280).
T1 construct: native, purified from sulphite-grown Mj cells; untagged
T1 sequence (Q58280 1-620): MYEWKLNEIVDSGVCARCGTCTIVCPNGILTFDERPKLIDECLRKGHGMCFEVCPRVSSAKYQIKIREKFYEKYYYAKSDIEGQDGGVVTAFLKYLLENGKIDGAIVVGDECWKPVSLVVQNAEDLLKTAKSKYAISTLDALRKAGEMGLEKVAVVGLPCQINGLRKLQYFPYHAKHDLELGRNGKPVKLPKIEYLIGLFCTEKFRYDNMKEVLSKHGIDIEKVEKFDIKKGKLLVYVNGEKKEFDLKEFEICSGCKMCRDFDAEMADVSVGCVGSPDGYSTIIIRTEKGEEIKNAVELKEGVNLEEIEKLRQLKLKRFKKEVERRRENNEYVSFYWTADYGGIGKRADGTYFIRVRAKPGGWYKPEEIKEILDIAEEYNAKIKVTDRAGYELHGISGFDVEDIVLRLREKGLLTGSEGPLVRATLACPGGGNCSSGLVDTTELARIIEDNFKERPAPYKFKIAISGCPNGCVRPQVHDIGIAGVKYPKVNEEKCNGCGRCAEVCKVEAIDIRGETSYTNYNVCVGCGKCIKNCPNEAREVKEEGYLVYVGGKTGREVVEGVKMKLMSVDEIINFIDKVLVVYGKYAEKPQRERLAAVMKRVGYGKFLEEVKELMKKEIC
Description: non-degradative extraction from purified protein, reversed-phase HPLC. The class given is binding. The note with it: native co-purified flavin, 25 mM potassium phosphate pH 7.

Substrate in data set [2]: O=NO
The data set can be described thus: purified protein. The class given is biochemical, Methanocaldococcus jannaschii. The note with it: 40 µM F420H2, 5-150 µM nitrite, 100 mM potassium phosphate pH 7.

Substrate in data set [3]: NO
Description: purified protein. The class given is biochemical, Methanocaldococcus jannaschii. The note with it: 40 µM F420H2, 25-600 µM hydroxylamine, 100 mM potassium phosphate pH 7.

Here are results for two molecules from publication PMC10202398, “Nitrite reductase activity in F420-dependent sulphite reductase (Fsr) from Methanocaldococcus jannaschii” (Access Microbiology, 2023).

A word on the Km: it is the concentration of substrate that gives half-maximal velocity.

Take `Cc1cc2nc3c(=O)[nH]c(=O)nc-3n(C[C@H](O)[C@H](O)[C@H](O)COP(=O)(O)OP(=O)(O)OC[C@H]3O[C@@H](n4cnc5c(N)ncnc54)[C@H](O)[C@@H]3O)c2cc1C` [FAD]: in data set [1], the “non-degradative extraction from purified protein, reversed-phase HPLC” value is “Reversed-phase HPLC identified the flavin extracted from MjFsrI as FAD”.

B1: MjFsrI (F420-dependent sulphite reductase, Fsr) (Methanocaldococcus jannaschii DSM 2661) (protein)
chain: MYEWKLNEIVDSGVCARCGTCTIVCPNGILTFDERPKLIDECLRKGHGMCFEVCPRVSSAKYQIKIREKFYEKYYYAKSDIEGQDGGVVTAFLKYLLENGKIDGAIVVGDECWKPVSLVVQNAEDLLKTAKSKYAISTLDALRKAGEMGLEKVAVVGLPCQINGLRKLQYFPYHAKHDLELGRNGKPVKLPKIEYLIGLFCTEKFRYDNMKEVLSKHGIDIEKVEKFDIKKGKLLVYVNGEKKEFDLKEFEICSGCKMCRDFDAEMADVSVGCVGSPDGYSTIIIRTEKGEEIKNAVELKEGVNLEEIEKLRQLKLKRFKKEVERRRENNEYVSFYWTADYGGIGKRADGTYFIRVRAKPGGWYKPEEIKEILDIAEEYNAKIKVTDRAGYELHGISGFDVEDIVLRLREKGLLTGSEGPLVRATLACPGGGNCSSGLVDTTELARIIEDNFKERPAPYKFKIAISGCPNGCVRPQVHDIGIAGVKYPKVNEEKCNGCGRCAEVCKVEAIDIRGETSYTNYNVCVGCGKCIKNCPNEAREVKEEGYLVYVGGKTGREVVEGVKMKLMSVDEIINFIDKVLVVYGKYAEKPQRERLAAVMKRVGYGKFLEEVKELMKKEIC
notes: native, purified from sulphite-grown Mj cells; untagged
Take B1: the Michaelis constant (Km) in “purified protein [2]” is 8.9 ± 0.9 µM; in “purified protein [3]” it was 112.4 ± 14.4 µM.
